The supplement of paper PMC6757056
± gives the standard deviation of the averaged measurements.

B1: library; a variant is named by its letters at N, in order (parent)
chain: GCUGUCACCGAGAAACUGUGAAGUAUAUCUUAAACCUGGGCACUUAAAAGAUAUAUGGAGUUAGUAGUGCAACCUGCUCGGUCUGAUGAGUCCNNNNNNGGACGAAACAGC

How the values were obtained:
cyclic di-GMP [1] = variants of: B1; assay: FACS-Seq fitted mean relative fluorescence mCherry/BFP without ligand (log10 relative fluorescence); HEK293T; ligand: cyclic di-GMP (c-di-GMP-II aptamer); higher = higher reporter protein expression; conditions: ligand present: no
Method: (§1)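 Hammerhead (sTRSV) ribozyme switch libraries with a ligand aptamer grafted on stem I and a randomized N4-6 loop II, cloned into the 3' UTR of mCherry and transiently transfected into HEK293T cells; RNA-Seq 72 h post transfection with ligand added 1 h before transfection; RNA read count / plasmid DNA read count normalized to the non-cleaving sTRSVctl (x100), log10; sequences with >100 DNA reads. FACS-Seq: lentiviral library sorted into 6 bins after 48 h ligand, log-normal fit mean of mCherry/BFP scaled to controls. Printed sequences are partial switch sequences.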

cyclic di-GMP [2] = variants of: B1; assay: normalized RNA/DNA level without ligand (relative to sTRSVctl = 100) (log10 (% of sTRSVctl)); HEK293T; ligand: cyclic di-GMP (c-di-GMP-II aptamer); higher = less ribozyme self-cleavage, higher mRNA level; conditions: reporter: mCherry (pCS4076), ligand present: no
Method: as §1

cyclic di-GMP [3] = variants of: B1; assay: FACS-Seq fitted mean relative fluorescence mCherry/BFP with ligand (log10 relative fluorescence); HEK293T; ligand: cyclic di-GMP (c-di-GMP-II aptamer); ligand concentration (+) FACS-Seq: 1 mM; higher = higher reporter protein expression; conditions: ligand present: yes
Method: as §1

cyclic di-GMP [4] = variants of: B1; assay: normalized RNA/DNA level with ligand (relative to sTRSVctl = 100) (log10 (% of sTRSVctl)); HEK293T; ligand: cyclic di-GMP (c-di-GMP-II aptamer); ligand concentration (+) RNA-Seq: 1 mM; higher = less ribozyme self-cleavage, higher mRNA level; conditions: reporter: mCherry (pCS4076), ligand present: yes
Method: as §1

| Variant | FACS-Seq fitted mean (log10) (cyclic di-GMP [1]) | normalized RNA/DNA level without ligand (log10) (cyclic di-GMP [2]) | FACS-Seq fitted mean (log10) (cyclic di-GMP [3]) | normalized RNA/DNA level with ligand (log10) (cyclic di-GMP [4]) |
| --- | --- | --- | --- | --- |
| GCUGUCACCGAGAAACUGUGAAGUAUAUCUUAAACCUGGGCACUUAAAAGAUAUAUGGAGUUAGUAGUGCAACCUGCUCGGUCUGAUGAGUCCCAAUCCGGACGAAACAGC [CAAUCC] | -0.487 ± 0.028 | 1.75 ± 0.049 | -0.368 ± 0.016 | 1.87 ± 0.11 |
| GCUGUCACCGAGAAACUGUGAAGUAUAUCUUAAACCUGGGCACUUAAAAGAUAUAUGGAGUUAGUAGUGCAACCUGCUCGGUCUGAUGAGUCCCAAUCAGGACGAAACAGC [CAAUCA] | -0.5458 ± 0.0024 | 1.4 ± 0.11 | -0.364 ± 0.017 | 1.61 ± 0.085 |
| GCUGUCACCGAGAAACUGUGAAGUAUAUCUUAAACCUGGGCACUUAAAAGAUAUAUGGAGUUAGUAGUGCAACCUGCUCGGUCUGAUGAGUCCCAAUCUGGACGAAACAGC [CAAUCU] | -1.02 ± 0.16 | 1.54 ± 0.069 | -0.88 ± 0.038 | 1.71 ± 0.13 |
| GCUGUCACCGAGAAACUGUGAAGUAUAUCUUAAACCUGGGCACUUAAAAGAUAUAUGGAGUUAGUAGUGCAACCUGCUCGGUCUGAUGAGUCCAAAUAUGGACGAAACAGC [AAAUAU] | -0.442 ± 0.052 | 1.6004 ± 0.00073 | -0.152 ± 0.097 | 1.78 ± 0.11 |
| GCUGUCACCGAGAAACUGUGAAGUAUAUCUUAAACCUGGGCACUUAAAAGAUAUAUGGAGUUAGUAGUGCAACCUGCUCGGUCUGAUGAGUCCUAAUCUGGACGAAACAGC [UAAUCU] | -0.884 ± 0.042 | 1.718 ± 0.0051 | -0.707 ± 0.054 | 1.85 ± 0.08 |
| GCUGUCACCGAGAAACUGUGAAGUAUAUCUUAAACCUGGGCACUUAAAAGAUAUAUGGAGUUAGUAGUGCAACCUGCUCGGUCUGAUGAGUCCUAAUCGGGACGAAACAGC [UAAUCG] | -0.029 ± 0.037 | 1.7 ± 0.017 | 0.149 ± 0.061 | 1.82 ± 0.17 |
| GCUGUCACCGAGAAACUGUGAAGUAUAUCUUAAACCUGGGCACUUAAAAGAUAUAUGGAGUUAGUAGUGCAACCUGCUCGGUCUGAUGAGUCCGAAUGAGGACGAAACAGC [GAAUGA] | -0.606 ± 0.037 | 1.48 ± 0.06 | -0.296 ± 0.056 | 1.65 ± 0.16 |
